The results in this text go back to patent US8227212B2, “Cell that expresses a sulfatase and a formylglycine generating enzyme” (Shire Human Genetic Therapies, Inc., priority 2003, dated 2012).

Where two headings read alike, the source gives them in different places.

Data set [1] addresses T1, FGE (Bos taurus, UniProt Q0P5L5).
T1 construct: the soluble fraction (reticuloplasm) of bovine testis microsomes served as the starting material; from tissue; host or cells: bovine testis rough microsomes, reticuloplasm
T1 sequence (Q0P5L5 34-374): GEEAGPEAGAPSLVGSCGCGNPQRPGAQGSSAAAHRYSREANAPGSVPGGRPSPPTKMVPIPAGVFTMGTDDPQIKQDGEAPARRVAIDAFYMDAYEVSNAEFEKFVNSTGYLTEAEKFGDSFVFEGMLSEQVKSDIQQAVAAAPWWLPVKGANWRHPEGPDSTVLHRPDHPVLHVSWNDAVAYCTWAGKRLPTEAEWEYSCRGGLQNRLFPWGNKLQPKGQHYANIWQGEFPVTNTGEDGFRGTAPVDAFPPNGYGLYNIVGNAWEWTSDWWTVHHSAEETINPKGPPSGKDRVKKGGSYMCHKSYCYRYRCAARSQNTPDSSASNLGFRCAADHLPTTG
Briefly: In vitro FGE activity assay with [35S] ASA fragments (ribosome-associated nascent chain complexes) as substrate. The format is biochemical, bovine. On the procedure: We had developed an assay for determining FGE activity in microsome extracts using in vitro synthesized [^35S] ASA fragments as substrate. The fragments were added to the assay mixture as ribosome-associated nascent chain complexes. The quantitation of the product included tryptic digestion, separation of the peptides by RP-HPLC and identification and quantitation of the [^35S]-labeled FGly containing tryptic peptide by a combination of chemical derivatization to hydrazones, RP-HPLC separation and liquid scintillation counting (Fey et al., J. Biol. Chem., 2001, 276:47021-47028). For monitoring the enzyme activity during purification, this cumbersome procedure needed to be modified. […] We synthesized the 23mer peptide P23 (SEQ ID NO:33), which corresponds to ASA residues 60-80 with an additional N-acetylated methionine and a C-amidated serine residue to protect the N- and C-terminus, respectively. The cysteine and the FGly containing forms of P23 could be identified and quantified by matrix-assisted laser desorption/ionisation time of flight (MALDI-TOF) mass spectrometry. The presence of the FGly residue in position 11 of P23 was verified by MALDI-TOF post source decay mass spectrometry (see Peng et al., J. Mass Spec., 2003, 38:80-86). […]

Data set [2] addresses T1, FGE. Briefly: Affinity matrices: Affigel 10 derivatized with 16mer peptides, binding of FGE. Details: species or system bovine. The method, then: Bovine testes were obtained from the local slaughter house and stored for up to 20 h on ice. The parenchyme was freed from connective tissue and homogenized in a waring blendor and by three rounds of motor pottering. Preparation of rough microsomes (RM) by cell fractionation of the obtained homogenate was performed as described (Meyer et al., J. Biol. Chem., 2000, 275:14550-14557) with the following modifications. Three differential centrifugation steps, 20 minutes each at 4° C., were performed at 500 g (JA10 rotor), 3000 g (JA10) and 10000 g (JA20). From the last supernatant the RM membranes were sedimented (125000 g, Ti45 rotor, 45 min, 4° C.), homogenized by motor pottering and layered on a sucrose cushion (50 mM Hepes, pH 7.6, 50 mM KAc, 6 mM MgAc2, 1 mM EDTA, 1.3 M sucrose, 5 mM β-mercaptoethanol). RMs were recovered from the pellet after spinning for 210 minutes at 45000 rpm in a Ti45 rotor at 4° C. Usually 100000-150000 equivalents RM, as defined by Walter and Blobel (Methods Enzymol.,1983, 96:84-93), were obtained from 1 kg of testis tissue. The reticuloplasm, i.e. the luminal content of the RM, was obtained by differential extraction at low concentrations of deoxy Big Chap, as described (Fey et al., J. Biol. Chem., 2001, 276:47021-47028). For FGE purification, 95 ml of reticuloplasm were dialyzed for 20 h at 4° C. against 20 mM Tris/HCl, pH 8.0, 2.5 mM DTT, and cleared by centrifugation at 125000 g for 1 h. 32 ml-aliquots of the cleared reticuloplasm were loaded on a MonoQ HR10/10 column (Amersham Biosciences, Piscataway, N.J.) at room temperature, washed and eluted at 2 ml/min with a linear gradient of 0 to 0.75 M NaCl in 80 ml of the Tris buffer. […] An aliqout of the eluate was substituted with 1 mg/ml bovine serum albumin, dialyzed against buffer A and analyzed for activity. […] The polypeptide composition of the starting material and preparations obtained after the chromatographic steps were monitored by SDSPAGE (15% acrylamide, 0.16% bisacrylamide) and staining with SYPRO Ruby (Bio-Rad Laboratories). […]

Data set [3] concerns the target T1, FGE. As to the kind of experiment: In vitro assay for FGE with peptide P23 as substrate (MALDI-TOF). It is filed as biochemical. The settings on record: incubation with extracts from microsomes of bovine pancreas or bovine testis. On the procedure:
For monitoring the activity of FGE, the N-acetylated and C-amidated 23mer peptide P23 ([…]) (SEQ ID NO:33) was used as substrate. The conversion of the Cysteine residue in position 11 to FGly was monitored by MALDI-TOF mass spectrometry. A 6 μM stock solution of P23 in 30% acetonitrile and 0.1% trifluoroacetic acid (TFA) was prepared. Under standard conditions 6 pmol of P23 were incubated at 37° C. with up to 10 μl enzyme in a final volume of 30 μl 50 mM Tris/HCl, pH 9.0, containing 67 mM NaCl, 15 μM CaCl2, 2 mM DTT, and 0.33 mg/ml bovine serum albumin. To stop the enzyme reaction 1.5 μl 10% TFA were added. […] Activity (pmol product/h) was calculated on the basis of the peak height of the product divided by the sum of the peak heights of P23 and the product.
We had developed an assay for determining FGE activity in microsome extracts using in vitro synthesized [^35S] […] The quantitation of the product included tryptic digestion, separation of the peptides by RP-HPLC and identification and quantitation of the [^35S]-labeled FGly containing tryptic peptide by a combination of chemical derivatization to hydrazones, RP-HPLC separation and liquid scintillation counting (Fey et al., J. Biol. Chem., 2001, 276:47021-47028). […] The cysteine and the FGly containing forms of P23 could be identified and quantified by matrix-assisted laser desorption/ionisation time of flight (MALDI-TOF) mass spectrometry. […]

The subject of the next data set is ARSA, ARSC and ARSE. Briefly: Co-expression of FGE (SUMF1) and sulfatase cDNAs in cell lines, sulfatase activities. The format is cell-based, human. The settings on record: co-transfection with ARSA, ARSC and ARSE cDNAs in various cell lines. The source says:
To test the effect of FGE (SUMF1) on additional sulfatase activities in normal cells we overexpressed ARSA (SEQ ID NO:14), ARSC (SEQ ID NO:18) and ARSE (SEQ ID NO:22) cDNAs in various cell lines with and without co-transfection of the FGE (SUMF1) cDNA and measured sulfatase activities.
To test for functional conservation of the FGE (SUMF1) gene during evolution we overexpressed ARSA, ARSC and ARSE cDNAs in various cell lines with and without co-transfection of the […] and measured sulfatase activities.

Regarding “ASA65-80: synthetic 16mer peptide corresponding to ASA residues 65-80 containing the sequence motif required for FGly formation (PVSLCTPSRAALLTGR)”, in the data set with FGE [1], the “inhibition of FGE activity” value is reported as “inhibited the FGE activity”. The “binding of FGE to peptide immobilized to Affigel 10” value (shortened to “binding of FGE”) with FGE [2] is “bound FGE efficiently”. For Ac-MTDFYVPVSLCTPSRAALLTGRS-NH2 [P23], at FGE [3], the “conversion of the peptide into a FGly containing derivative” value is “up to 95%”.

Consider “FGE2 (SUMF2): FGE gene paralog located on human chromosome 7 (SEQ ID NOs: 45, 46)”, for which the “activity of FGE homologs on overexpressed human sulfatases” value in the data set with ARSA, ARSC and ARSE is reported as “much weaker”. With “Ser69 peptide: variant of ASA65-80 with Cys69 replaced by serine, PVSLSTPSRAALLTGR (SEQ ID NO:35) (a variant of the ASA65-80 peptide, in which the Cys69 was replaced by a Serine)”, in the data set with FGE [2], the “binding of FGE” value was “efficiently bound FGE”. As to “scrambled peptide: variant of ASA65-80 with Cys69, Pro71 and Arg73 scrambled, PVSLPTRSCAALLTGR (SEQ ID NO:34) (a variant of the ASA65-80 peptide, in which residues Cys69, Pro71 and Arg73, critical for FGly formation, were scrambled)”, the “inhibition of FGE activity” value with FGE [1] (added at 10 mM concentration) is “did not inhibit FGE activity”. For the same substance, in the data set with FGE [2], the “binding of FGE” value is “did not retain FGE activity”.
